Measurements published in patent publication US5798442A, “Peptidyl derivatives as inhibitors of pro-apoptotic cysteine proteinases” (Merck Frosst Canada, Inc., priority 1995, dated 1998).

Substrate: CC(=O)N[C@@H](CC(=O)O)C(=O)N[C@@H](CCC(=O)O)C(=O)N[C@H](C(=O)N[C@@H](CC(=O)O)C(=O)Nc1ccc2c(C)cc(=O)oc2c1)C(C)C
Assay: continuous fluorometric assay with Ac-DEVD-AMC and purified apopain
Format: biochemical, human
Details: other: purified apopain, 25° C., pH 7.5

B1: apopain/CPP32 (Homo sapiens) (protein)
chain 1: SGISLDNSYKMDYPEMGLCIIINNKNFHKSTGMTSRSGTDVDAANLRETFRNLKYEVRNKNDLTREEIVELMRDVSKEDHSKRSSFVCVLLSHGEEGIIFGTNGPVDLKKITNFFRGDRCRSLTGKPKLFIIQACRGTELDCGIETD
chain 2: SGVDDDMACHKIPVEADFLYAYSTAPGYYSWRNSKDGSWFIQSLCAMLKQYADKLEFMHILTRVNRKVATEFESFSFDATFHAKKQIPCIVSMLTKELYFYH
notes: cleavage between Asp^28 -Ser^29 and Asp^175 -Ser^176; cleavage sites which yield the p17 and p12 subunits from the CPP32 proenzyme; endogenous in cells; host or cells: THP-1 cells (ATCC TIB 202)
**Q.** Which Km does the source give for B1 here?
**A.** 9.7 ± 1.0 µM
